Laboratory results: US20230405119A1 (published 2023)

Molecular target: IL13ra2-Fc
Test: yeast display flow cytometry titration

B1: RLK (ligand)
chain: GPVPPSTALRRLIEELVNITQNQKAPLCNGSMVWSINLTAGMYCAALESLINVSGCSAIEKTQRMLSGFCPHKVSAGQFSSLHVRDTKILVAQFVKDLLLHLKKLFKEGRFN
Q: For B1, which Kd is on record?
A: 480 nM

B2: YLK (ligand)
chain: GPVPPSTALRYLIEELVNITQNQKAPLCNGSMVWSINLTAGMYCAALESLINVSGCSAIEKTQRMLSGFCPHKVSAGQFSSLHVRDTKILVAQFVKDLLLHLKKLFKEGRFN
Q: With B2 as the binder, how does the Kd read?
A: 200 nM
